Test results reported in patent publication US20220025010A1 (ANTAG THERAPEUTICS, published 2022).
Where two headings read alike, the source gives them in different places. *1 amine or outer side, *2 acyl side, *3 side chain or, on linkers, in order; H or OH if unused. Where no end group is shown, it is not given here. Side-chain parts run from the residue outwards. The star is where a group is joined. C16 diacid = O=C(O)CCCCCCCCCCCCCCC(=O)*; γGlu = O=C(O)[C@H](CCC(=O)[*:2])N[*:1]; AEEA = NCCOCCOCC(=O)O

Legend:
human GIP receptor [1] = target: T1, human GIP receptor (human, UniProt P48546 22-466); experiment: cell-based or functional assay
T1 sequence (looked up): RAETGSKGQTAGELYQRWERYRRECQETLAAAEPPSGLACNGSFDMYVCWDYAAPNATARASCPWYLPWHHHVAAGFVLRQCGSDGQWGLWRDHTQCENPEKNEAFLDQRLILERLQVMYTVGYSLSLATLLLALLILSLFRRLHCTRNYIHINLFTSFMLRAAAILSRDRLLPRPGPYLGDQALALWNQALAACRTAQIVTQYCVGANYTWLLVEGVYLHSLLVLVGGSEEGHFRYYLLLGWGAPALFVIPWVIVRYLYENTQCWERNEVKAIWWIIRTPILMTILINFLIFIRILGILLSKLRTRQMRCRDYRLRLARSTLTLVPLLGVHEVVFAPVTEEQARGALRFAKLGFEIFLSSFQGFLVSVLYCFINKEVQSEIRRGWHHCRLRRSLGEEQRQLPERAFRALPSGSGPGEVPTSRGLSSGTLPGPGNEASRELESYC

human GIP receptor [2] = target: T1, human GIP receptor; experiment: cell-based or functional assay; remark: listed apart in the source

B1: AT383 (peptide)
peptide: SGTFISDYSIAMDRIK([AEEA-AEEA-AEEA-γGlu-C16 diacid])QQDFVNWLLAQR-NH2
modifications: N-terminus assumed
SMILES: CC[C@H](C)[C@H](NC(=O)[C@H](CO)NC(=O)[C@H](Cc1ccc(O)cc1)NC(=O)[C@H](CC(=O)O)NC(=O)[C@H](CO)NC(=O)[C@@H](NC(=O)[C@H](Cc1ccccc1)NC(=O)[C@@H](NC(=O)CNC(=O)[C@@H](N)CO)[C@@H](C)O)[C@@H](C)CC)C(=O)N[C@@H](C)C(=O)N[C@@H](CCSC)C(=O)N[C@@H](CC(=O)O)C(=O)N[C@@H](CCCNC(=N)N)C(=O)N[C@H](C(=O)N[C@@H](CCCCNC(=O)COCCOCCNC(=O)COCCOCCNC(=O)COCCOCCNC(=O)CC[C@H](NC(=O)CCCCCCCCCCCCCCC(=O)O)C(=O)O)C(=O)N[C@@H](CCC(N)=O)C(=O)N[C@@H](CCC(N)=O)C(=O)N[C@@H](CC(=O)O)C(=O)N[C@@H](Cc1ccccc1)C(=O)N[C@H](C(=O)N[C@@H](CC(N)=O)C(=O)N[C@@H](Cc1c[nH]c2ccccc12)C(=O)N[C@@H](CC(C)C)C(=O)N[C@@H](CC(C)C)C(=O)N[C@@H](C)C(=O)N[C@@H](CCC(N)=O)C(=O)N[C@@H](CCCNC(=N)N)C(N)=O)C(C)C)[C@@H](C)CC
CisBio cAMP antagonism % inhib (human GIP receptor [1]): 89%
CisBio cAMP antagonism IC50 (human GIP receptor [1]): 12.6 nM
cAMP antagonism % inhib (human GIP receptor [1]): 100%
cAMP antagonism IC50 (human GIP receptor [1]): 1 nM
CisBio cAMP agonism % Efficacy (human GIP receptor [2]): 0%
CisBio cAMP antagonism % inhib (human GIP receptor [2]): 89%
CisBio cAMP antagonism IC50 (human GIP receptor [2]): 12.6 nM
CisBio cAMP antagonism pIC50 (human GIP receptor [2]): 7.9
DiscoveRx cAMP antagonism % inhib (human GIP receptor [2]): 100%
DiscoveRx cAMP antagonism IC50 (human GIP receptor [2]): 1 nM
DiscoveRx cAMP antagonism log IC50 (human GIP receptor [2]): -8.9 log M

B2: AT504 (peptide)
peptide: SGTFISDYSIAMDRIKQQDFVNWLLAQR
HELM: PEPTIDE1{S.G.T.F.I.S.D.Y.S.I.A.M.D.R.I.K.Q.Q.D.F.V.N.W.L.L.A.Q.R.[am]}|PEPTIDE2{[O=C(O)CCCCCCCCCCCCCCC(=O)[*:2]].[gGlu]}$PEPTIDE1,PEPTIDE2,16:R3-2:R2$$$V2.0; N-terminus assumed
SMILES: CC[C@H](C)[C@H](NC(=O)[C@H](CO)NC(=O)[C@H](Cc1ccc(O)cc1)NC(=O)[C@H](CC(=O)O)NC(=O)[C@H](CO)NC(=O)[C@@H](NC(=O)[C@H](Cc1ccccc1)NC(=O)[C@@H](NC(=O)CNC(=O)[C@@H](N)CO)[C@@H](C)O)[C@@H](C)CC)C(=O)N[C@@H](C)C(=O)N[C@@H](CCSC)C(=O)N[C@@H](CC(=O)O)C(=O)N[C@@H](CCCNC(=N)N)C(=O)N[C@H](C(=O)N[C@@H](CCCCNC(=O)CC[C@H](NC(=O)CCCCCCCCCCCCCCC(=O)O)C(=O)O)C(=O)N[C@@H](CCC(N)=O)C(=O)N[C@@H](CCC(N)=O)C(=O)N[C@@H](CC(=O)O)C(=O)N[C@@H](Cc1ccccc1)C(=O)N[C@H](C(=O)N[C@@H](CC(N)=O)C(=O)N[C@@H](Cc1c[nH]c2ccccc12)C(=O)N[C@@H](CC(C)C)C(=O)N[C@@H](CC(C)C)C(=O)N[C@@H](C)C(=O)N[C@@H](CCC(N)=O)C(=O)N[C@@H](CCCNC(=N)N)C(N)=O)C(C)C)[C@@H](C)CC
CisBio cAMP agonism % Efficacy (human GIP receptor [2]): 0%
CisBio cAMP antagonism % inhib (human GIP receptor [2]): 85%
CisBio cAMP antagonism IC50 (human GIP receptor [2]): 39.8 nM
CisBio cAMP antagonism pIC50 (human GIP receptor [2]): 7.4
DiscoveRx cAMP antagonism % inhib (human GIP receptor [2]): 90%
DiscoveRx cAMP antagonism IC50 (human GIP receptor [2]): 21 nM
DiscoveRx cAMP antagonism log IC50 (human GIP receptor [2]): -7.7 log M

B3: AT502 (peptide)
peptide: GGTFISDYSIAMDRIKQQDFVNWLLAQR
HELM: PEPTIDE1{G.G.T.F.I.S.D.Y.S.I.A.M.D.R.I.K.Q.Q.D.F.V.N.W.L.L.A.Q.R.[am]}|PEPTIDE2{[O=C(O)CCCCCCCCCCCCCCC(=O)[*:2]].[gGlu]}$PEPTIDE1,PEPTIDE2,16:R3-2:R2$$$V2.0; N-terminus assumed
SMILES: CC[C@H](C)[C@H](NC(=O)[C@H](CO)NC(=O)[C@H](Cc1ccc(O)cc1)NC(=O)[C@H](CC(=O)O)NC(=O)[C@H](CO)NC(=O)[C@@H](NC(=O)[C@H](Cc1ccccc1)NC(=O)[C@@H](NC(=O)CNC(=O)CN)[C@@H](C)O)[C@@H](C)CC)C(=O)N[C@@H](C)C(=O)N[C@@H](CCSC)C(=O)N[C@@H](CC(=O)O)C(=O)N[C@@H](CCCNC(=N)N)C(=O)N[C@H](C(=O)N[C@@H](CCCCNC(=O)CC[C@H](NC(=O)CCCCCCCCCCCCCCC(=O)O)C(=O)O)C(=O)N[C@@H](CCC(N)=O)C(=O)N[C@@H](CCC(N)=O)C(=O)N[C@@H](CC(=O)O)C(=O)N[C@@H](Cc1ccccc1)C(=O)N[C@H](C(=O)N[C@@H](CC(N)=O)C(=O)N[C@@H](Cc1c[nH]c2ccccc12)C(=O)N[C@@H](CC(C)C)C(=O)N[C@@H](CC(C)C)C(=O)N[C@@H](C)C(=O)N[C@@H](CCC(N)=O)C(=O)N[C@@H](CCCNC(=N)N)C(N)=O)C(C)C)[C@@H](C)CC
CisBio cAMP agonism % Efficacy (human GIP receptor [2]): 13%
CisBio cAMP antagonism % inhib (human GIP receptor [2]): 65%
CisBio cAMP antagonism IC50 (human GIP receptor [2]): 293 nM
CisBio cAMP antagonism pIC50 (human GIP receptor [2]): 6.5
DiscoveRx cAMP agonism Emax (human GIP receptor [2]): 5
DiscoveRx cAMP antagonism % inhib (human GIP receptor [2]): 85%
DiscoveRx cAMP antagonism IC50 (human GIP receptor [2]): 52 nM
DiscoveRx cAMP antagonism log IC50 (human GIP receptor [2]): -7.3 log M

B4: AT500 (peptide)
peptide: PGTFISDYSIAMDRIK(C16 diacid)QQDFVNWLLAQR-NH2
modifications: N-terminus assumed
SMILES: CC[C@H](C)[C@H](NC(=O)[C@H](CO)NC(=O)[C@H](Cc1ccc(O)cc1)NC(=O)[C@H](CC(=O)O)NC(=O)[C@H](CO)NC(=O)[C@@H](NC(=O)[C@H](Cc1ccccc1)NC(=O)[C@@H](NC(=O)CNC(=O)[C@@H]1CCCN1)[C@@H](C)O)[C@@H](C)CC)C(=O)N[C@@H](C)C(=O)N[C@@H](CCSC)C(=O)N[C@@H](CC(=O)O)C(=O)N[C@@H](CCCNC(=N)N)C(=O)N[C@H](C(=O)N[C@@H](CCCCNC(=O)CCCCCCCCCCCCCCC(=O)O)C(=O)N[C@@H](CCC(N)=O)C(=O)N[C@@H](CCC(N)=O)C(=O)N[C@@H](CC(=O)O)C(=O)N[C@@H](Cc1ccccc1)C(=O)N[C@H](C(=O)N[C@@H](CC(N)=O)C(=O)N[C@@H](Cc1c[nH]c2ccccc12)C(=O)N[C@@H](CC(C)C)C(=O)N[C@@H](CC(C)C)C(=O)N[C@@H](C)C(=O)N[C@@H](CCC(N)=O)C(=O)N[C@@H](CCCNC(=N)N)C(N)=O)C(C)C)[C@@H](C)CC
CisBio cAMP agonism % Efficacy (human GIP receptor [2]): 4%
CisBio cAMP antagonism % inhib (human GIP receptor [2]): 77%
CisBio cAMP antagonism IC50 (human GIP receptor [2]): 66.8 nM
CisBio cAMP antagonism pIC50 (human GIP receptor [2]): 7.2
DiscoveRx cAMP antagonism % inhib (human GIP receptor [2]): 90%
DiscoveRx cAMP antagonism IC50 (human GIP receptor [2]): 29 nM
DiscoveRx cAMP antagonism log IC50 (human GIP receptor [2]): -7.5 log M

B5: AT356 (peptide)
peptide: DYSIAMDKIK(C16 diacid)QQDFVNWLLAQK-NH2
modifications: N-terminus assumed
SMILES: CC[C@H](C)[C@H](NC(=O)[C@H](CO)NC(=O)[C@H](Cc1ccc(O)cc1)NC(=O)[C@@H](N)CC(=O)O)C(=O)N[C@@H](C)C(=O)N[C@@H](CCSC)C(=O)N[C@@H](CC(=O)O)C(=O)N[C@@H](CCCCN)C(=O)N[C@H](C(=O)N[C@@H](CCCCNC(=O)CCCCCCCCCCCCCCC(=O)O)C(=O)N[C@@H](CCC(N)=O)C(=O)N[C@@H](CCC(N)=O)C(=O)N[C@@H](CC(=O)O)C(=O)N[C@@H](Cc1ccccc1)C(=O)N[C@H](C(=O)N[C@@H](CC(N)=O)C(=O)N[C@@H](Cc1c[nH]c2ccccc12)C(=O)N[C@@H](CC(C)C)C(=O)N[C@@H](CC(C)C)C(=O)N[C@@H](C)C(=O)N[C@@H](CCC(N)=O)C(=O)N[C@@H](CCCCN)C(N)=O)C(C)C)[C@@H](C)CC
CisBio cAMP agonism % Efficacy (human GIP receptor [2]): 0%
